Results on one molecule are retold here after paper PMC12234435, “Monoclonal antibody neutralizes Staphylococcus aureus serine protease-like protein B (SplB)-induced pathology” (Infection and Immunity, 2025).

Broadly, the Kd is the free concentration of one partner at which half of the binding sites on the other are occupied at equilibrium, for simple one-to-one binding.

For assay [1], the target named is T1, native SplB in the extracellular proteins of S. aureus D29 (Staphylococcus aureus D29 (USA300 …, UniProt Q2FFT0, strain)).
T1 construct: serine protease-like protein B (SplB), secreted by S. aureus D29, a community-acquired USA300 derivative (CC8); no identifier printed for this strain's SplB; Denatured, separated by SDS-PAGE and blotted; also called SplB in the ECP preparation
The assay is described as follows: Western blot; 5 µg extracellular proteins of S. aureus NCTC 8325-4 and D29 denatured, SDS-PAGE, blotted on PVDF; α-SplB1 300 ng/mL overnight at 4°C as primary antibody. To be noted: one partner purified. (A western blot detects proteins with antibodies after separation by electrophoresis.)

Assay [2] deals with T2, recombinant tag-free Staphylococcus aureus serine protease-like protein B (SplB) (Staphylococcus aureus (strain NCTC 8325 …, UniProt Q2FXC3)). Nature of the assay: cell-based or functional assay.
The target in assay [3] is T2, recombinant tag-free Staphylococcus …. Nature of the assay: MST; RED-NHS-labelled tag-free SplB (40 nM) constant, α-SplB1 serially diluted from 3.42 µM to 0.209 nM; MST buffer with 0.05% Tween-20; RT; Monolith NT.115, 100% excitation power, 40% MST power. To be noted: both partners purified.
The target of assay [4] is T3, recombinant tag-free Staphylococcus aureus serine protease-like protein F (SplF) (Staphylococcus aureus (strain NCTC 8325 …, UniProt Q2FXC8)).
T3 construct: serine protease-like protein F (SplF) of Staphylococcus aureus, tag-free
Nature of the assay: ELISA; indirect ELISA for cross-reactivity with recombinant tag-free SplA, SplD, SplE and SplF. To be noted: both partners purified. For orientation: In an ELISA, binding on a coated surface is turned into a signal by an enzyme label.

Assay [5] addresses T4, recombinant tag-free Staphylococcus aureus serine protease-like protein D (SplD) (Staphylococcus aureus (strain NCTC 8325 …, UniProt Q2FXC5)).
T4 construct: serine protease-like protein D (SplD) of Staphylococcus aureus, tag-free
Described as above. To be noted: both partners purified.

Assay [6] concerns the target T5, recombinant tag-free Staphylococcus aureus serine protease-like protein A (SplA) (Staphylococcus aureus NCTC 8325 (strain …, UniProt Q2FXC2)).
T5 construct: serine protease-like protein A (SplA) of Staphylococcus aureus, tag-free
The assay is described as above. To be noted: both partners purified.

The target in assay [7] is T6, recombinant tag-free Staphylococcus aureus serine protease-like protein E (SplE) (Staphylococcus aureus (strain NCTC 8325 …, UniProt Q2FXC7)).
T6 construct: serine protease-like protein E (SplE) of Staphylococcus aureus, tag-free
The assay is described as above. The note with it: both partners purified.

B1: murine anti-SplB monoclonal antibody α-SplB1 (antibody, V domains shown)
VH: EVQLQESGPGILQSSQTLSLTCSFSGFSLNSVGMGVTWIRQPSGKGLEWLAHIYWDDDKLYNSSLKSRLTISKDTSRNQVFLNITSVVSADTATYYCARRVYGISYDYWYFDVWGTGTAVTVSS
VL: DILMTQSPATLSVTPGDRVSLSCRASQSISDYLHWYQQKSHESPRLLIKYASQSISGIPSRFSGSGSGSDFTLSINSVEPEDVGVYYCQNGHIFPPTFGAGTKLELK
notes: variable region of the heavy chain; mouse IgG1 heavy chain constant region (isotyping: IgG1 subclass); variable region of the light chain; mouse kappa light chain constant region (isotyping: κ light chains); IgG1, kappa; Raised against SplB-Strep; also called α-SplB1 mAb; anti-SplB mAb; source: hybridoma supernatant (C57BL/6N splenocytes fused with P3X63Ag8.653), purified (Protein-G-Sepharose)
Turning to B1, the binding result in assay [1] is “binds”; in assay [4] it was “no binding”; in assay [5], “no binding”; in assay [6], “no binding”; in assay [7], “no binding”. The “neutralisation of the cleavage of the synthetic substrate Ac-VEID-MCA by 2.5 µM tag-free SplB, pre-incubated with α-SplB1 at molar ratios 1:1 to 1:8 (SplB:α-SplB1), 37°C, 1 h” value in assay [2] was 66 % neutralised (at 1:1 molar ratio; complete at 1:2). Besides, the Kd in assay [3] is 37.9 nM.
